From patent US20140348865A1, “[…] ON AN HIV-1 V1V2 SITE-OF-VULNERABILITY” (The United States of America, as represented by the …, priority 2011, published 2014)

Assays:
[1] = molecular target: CNE7
[2] = molecular target: 6785.V5.C14
[3] = molecular target: Env of HIV-1 strain 3873 (pseudovirus) (HIV-1)
[4] = molecular target: Env of HIV-1 strain CNE30 (pseudovirus) (HIV-1)
[5] = molecular target: Env of HIV-1 strain 6471 (pseudovirus) (HIV-1)
[6] = molecular target: Env of HIV-1 strain 6322 (pseudovirus) (HIV-1)
[7] = molecular target: DU172.17
[8] = molecular target: CH117.4
[9] = molecular target: ZA012.29
[10] = molecular target: DU123.06
[11] = molecular target: CNE15
[12] = molecular target: ZM176.66
[13] = molecular target: Env of HIV-1 strain ZM135 (pseudovirus) (HIV-1)
[14] = molecular target: ZM109.4
[15] = molecular target: CAP45.G3
[16] = molecular target: MW965.26
[17] = molecular target: CAP244.D3
[18] = molecular target: ZM106.9
[19] = molecular target: DU151.02
[20] = molecular target: CNE53
[21] = molecular target: CNE58
[22] = molecular target: SO18.18
[23] = molecular target: MI369.A5
[24] = molecular target: Q461.e2
[25] = molecular target: M02138
[26] = molecular target: C3347.c11
[27] = molecular target: BB201.B42
[28] = molecular target: C2101.c1
[29] = molecular target: R2184.c4
[30] = molecular target: UG037.8
[31] = molecular target: 3718.v3.c11
[32] = molecular target: MB539.2B7
[33] = molecular target: Q842.d12
[34] = molecular target: BS208.B1
[35] = molecular target: 620345.c1
[36] = molecular target: KNH1209.18
[37] = molecular target: CNE55
[38] = molecular target: C1080.c3
[39] = molecular target: 3589_V1_C4
[40] = molecular target: 0815_V3_C3
[41] = molecular target: 3301_V1_C24
[42] = molecular target: Q168.a2
[43] = molecular target: MS208.A1
[44] = molecular target: Q259.17
[45] = molecular target: Env of HIV-1 strain 0439 (pseudovirus) (HIV-1)
[46] = molecular target: Q769.d22
[47] = molecular target: RW020.2
[48] = molecular target: 0260.v5.c36
[49] = molecular target: Env of HIV-1 strain QH209 (pseudovirus) (HIV-1)
[50] = molecular target: MB201.A1
[51] = molecular target: Q23.17
[52] = molecular target: BI369.9A
[53] = molecular target: KER2018.11
[54] = molecular target: 6540.v4.c1
[55] = molecular target: 0330.v4.c3
[56] = molecular target: Q769.h5
[57] = molecular target: R3265.c6
[58] = molecular target: CNE59
[59] = molecular target: Env of HIV-1 strain 398 (pseudovirus) (HIV-1)
[60] = molecular target: CNE5
[61] = molecular target: BB539.2B13
[62] = molecular target: 6545_V4_C1
[63] = molecular target: Env of HIV-1 strain CNE56 (pseudovirus) (HIV-1)
[64] = molecular target: R1166.c1
[65] = molecular target: CNE3
[66] = molecular target: KER2008.12
[67] = molecular target: 6095_V1_C10
[68] = molecular target: TH966.8
[69] = molecular target: C4118.09
[70] = molecular target: 3415.v1.c1
[71] = molecular target: 3468_V1_C12
[72] = molecular target: TH976.17

In the case of monoclonal antibody PG16, the neutralization IC50 [1] is reported as 0.393 µg/mL, the neutralization IC50 [2] is reported as < 0.023 µg/mL and the neutralization IC50 [3] is reported as 12.2 µg/mL. For the same substance, the neutralization IC50 [4] was > 50 µg/mL, the neutralization IC50 [5] was > 50 µg/mL and the neutralization IC50 [6] was > 50 µg/mL. It also gave a neutralization IC50 [7] of 0.03 µg/mL, a neutralization IC50 [8] of 0.005 µg/mL and a neutralization IC50 [9] of 0.631 µg/mL. For the same substance, the neutralization IC50 [10] was < 0.023 µg/mL, the neutralization IC50 [11] was < 0.023 µg/mL and the neutralization IC50 [12] was 0.002 µg/mL. The neutralization IC50 [13] was > 50 µg/mL, the neutralization IC50 [14] was 4.93 µg/mL and the neutralization IC50 [15] was < 0.023 µg/mL. For the same substance, the neutralization IC50 [16] was 0.961 µg/mL, the neutralization IC50 [17] was < 0.023 µg/mL and the neutralization IC50 [18] was 1.1 µg/mL. The neutralization IC50 [19] was < 0.023 µg/mL, the neutralization IC50 [20] was > 50 µg/mL and the neutralization IC50 [21] was < 0.023 µg/mL. The neutralization IC50 [22] was 0.023 µg/mL, the neutralization IC50 [23] was 0.011 µg/mL and the neutralization IC50 [24] was 4.11 µg/mL. For the same substance, the neutralization IC50 [25] was 0.022 µg/mL, the neutralization IC50 [26] was 0.006 µg/mL and the neutralization IC50 [27] was 0.003 µg/mL. For the same substance, the neutralization IC50 [28] was 0.009 µg/mL, the neutralization IC50 [29] was 0.28 µg/mL and the neutralization IC50 [30] was 0.001 µg/mL. The neutralization IC50 [31] was 0.019 µg/mL, the neutralization IC50 [32] was 0.025 µg/mL and the neutralization IC50 [33] was 0.001 µg/mL. For the same substance, the neutralization IC50 [34] was 0.004 µg/mL, the neutralization IC50 [35] was > 50 µg/mL and the neutralization IC50 [36] was 0.678 µg/mL. It also gave a neutralization IC50 [37] of 1.37 µg/mL, a neutralization IC50 [38] of 0.001 µg/mL and a neutralization IC50 [39] of 0.728 µg/mL. The neutralization IC50 [40] was > 50 µg/mL, the neutralization IC50 [41] was < 0.023 µg/mL and the neutralization IC50 [42] was 0.031 µg/mL. For the same substance, the neutralization IC50 [43] was 0.047 µg/mL, the neutralization IC50 [44] was 0.028 µg/mL and the neutralization IC50 [45] was > 50 µg/mL. It also gave a neutralization IC50 [46] of 0.01 µg/mL, a neutralization IC50 [47] of 0.07 µg/mL and a neutralization IC50 [48] of 2.1 µg/mL. For the same substance, the neutralization IC50 [49] was > 50 µg/mL, the neutralization IC50 [50] was 0.001 µg/mL and the neutralization IC50 [51] was 0.002 µg/mL. The neutralization IC50 [52] was 0.007 µg/mL, the neutralization IC50 [53] was < 0.0006 µg/mL and the neutralization IC50 [54] was 0.017 µg/mL. For the same substance, the neutralization IC50 [55] was 0.006 µg/mL, the neutralization IC50 [56] was 0.002 µg/mL and the neutralization IC50 [57] was 0.036 µg/mL. For the same substance, the neutralization IC50 [58] was 0.113 µg/mL, the neutralization IC50 [59] was > 50 µg/mL and the neutralization IC50 [60] was < 0.023 µg/mL. The neutralization IC50 [61] was 0.012 µg/mL, the neutralization IC50 [62] was 0.068 µg/mL and the neutralization IC50 [63] was > 50 µg/mL. It also gave a neutralization IC50 [64] of 0.587 µg/mL, a neutralization IC50 [65] of 0.173 µg/mL and a neutralization IC50 [66] of 0.006 µg/mL. For the same substance, the neutralization IC50 [67] was < 0.023 µg/mL, the neutralization IC50 [68] was 0.008 µg/mL and the neutralization IC50 [69] was 0.021 µg/mL. The neutralization IC50 [70] was 0.036 µg/mL, the neutralization IC50 [71] was 2.38 µg/mL and the neutralization IC50 [72] was > 50 µg/mL.

In the case of monoclonal antibody PG9, the neutralization IC50 [1] is reported as 1.66 µg/mL, the neutralization IC50 [2] is reported as < 0.023 µg/mL and the neutralization IC50 [3] is reported as > 50 µg/mL. The neutralization IC50 [4] was > 50 µg/mL, the neutralization IC50 [5] was > 50 µg/mL and the neutralization IC50 [6] was > 50 µg/mL. For the same substance, the neutralization IC50 [7] was 0.262 µg/mL, the neutralization IC50 [8] was 0.008 µg/mL and the neutralization IC50 [9] was 27 µg/mL. The neutralization IC50 [10] was 0.091 µg/mL, the neutralization IC50 [11] was < 0.023 µg/mL and the neutralization IC50 [12] was 0.007 µg/mL. The neutralization IC50 [13] was > 50 µg/mL, the neutralization IC50 [14] was 0.106 µg/mL and the neutralization IC50 [15] was < 0.023 µg/mL. It also gave a neutralization IC50 [16] of 1.99 µg/mL, a neutralization IC50 [17] of 0.088 µg/mL and a neutralization IC50 [18] of 0.639 µg/mL. The neutralization IC50 [19] was < 0.023 µg/mL, the neutralization IC50 [20] was 0.147 µg/mL and the neutralization IC50 [21] was < 0.023 µg/mL. The neutralization IC50 [22] was 0.061 µg/mL, the neutralization IC50 [23] was 0.058 µg/mL and the neutralization IC50 [24] was 3.01 µg/mL. It also gave a neutralization IC50 [25] of 0.122 µg/mL, a neutralization IC50 [26] of 0.038 µg/mL and a neutralization IC50 [27] of 0.014 µg/mL. The neutralization IC50 [28] was 0.026 µg/mL, the neutralization IC50 [29] was 0.2 µg/mL and the neutralization IC50 [30] was 0.021 µg/mL. The neutralization IC50 [31] was 0.05 µg/mL, the neutralization IC50 [32] was 0.058 µg/mL and the neutralization IC50 [33] was 0.005 µg/mL. For the same substance, the neutralization IC50 [34] was 0.031 µg/mL, the neutralization IC50 [35] was 0.393 µg/mL and the neutralization IC50 [36] was 0.367 µg/mL. For the same substance, the neutralization IC50 [37] was 0.146 µg/mL, the neutralization IC50 [38] was 0.004 µg/mL and the neutralization IC50 [39] was 0.025 µg/mL. For the same substance, the neutralization IC50 [40] was > 50 µg/mL, the neutralization IC50 [41] was 0.281 µg/mL and the neutralization IC50 [42] was 0.106 µg/mL. For the same substance, the neutralization IC50 [43] was 0.071 µg/mL, the neutralization IC50 [44] was 0.045 µg/mL and the neutralization IC50 [45] was > 50 µg/mL. The neutralization IC50 [46] was 0.007 µg/mL, the neutralization IC50 [47] was 0.103 µg/mL and the neutralization IC50 [48] was 2.18 µg/mL. The neutralization IC50 [49] was > 50 µg/mL, the neutralization IC50 [50] was 0.024 µg/mL and the neutralization IC50 [51] was 0.007 µg/mL. For the same substance, the neutralization IC50 [52] was 0.029 µg/mL, the neutralization IC50 [53] was 0.001 µg/mL and the neutralization IC50 [54] was 0.035 µg/mL. The neutralization IC50 [55] was 0.018 µg/mL, the neutralization IC50 [56] was 0.002 µg/mL and the neutralization IC50 [57] was 1.3 µg/mL. For the same substance, the neutralization IC50 [58] was 0.091 µg/mL, the neutralization IC50 [59] was > 50 µg/mL and the neutralization IC50 [60] was < 0.023 µg/mL. For the same substance, the neutralization IC50 [61] was 0.106 µg/mL, the neutralization IC50 [62] was 0.095 µg/mL and the neutralization IC50 [63] was > 50 µg/mL. For the same substance, the neutralization IC50 [64] was 1.55 µg/mL, the neutralization IC50 [65] was 0.079 µg/mL and the neutralization IC50 [66] was 0.017 µg/mL. It also gave a neutralization IC50 [67] of 0.242 µg/mL, a neutralization IC50 [68] of 0.042 µg/mL and a neutralization IC50 [69] of 0.037 µg/mL. The neutralization IC50 [70] was 0.149 µg/mL, the neutralization IC50 [71] was 2.09 µg/mL and the neutralization IC50 [72] was > 50 µg/mL.
